Assay results taken from paper PMC5999394, “Design principles of a microtubule polymerase” (eLife, 2018).

Columns and labels:
[1] = biological target: wild-type yeast microtubules (polymerized wild-type yeast αβ-tubulin) (S. cerevisiae) (UniProt P09733); assay: TIRF microscopy, fluorescence intensity of the Stu2-eGFP spot on the growing microtubule end; end intensity dynamic assay; 5-300 nM Stu2-eGFP (titration, hyperbolic fit; apparent) or 200 nM variant; 0.8 μM wild-type yeast tubulin; 30°C
[2] = biological target: T1, wild-type yeast microtubules (polymerized wild-type yeast αβ-tubulin) (S. cerevisiae, UniProt P09733 1-447; P02557 1-457); assay: single-molecule TIRF microscopy, residence time on the growing microtubule end; 5 nM Stu2-eGFP variant with 1-1.5 µM unlabeled wild-type yeast tubulin; 100 ms streaming; one-phase exponential fit of the dwell times; 30°C; conditions: both partners purified
T1 construct: Tub1p (yeast α-tubulin), S. cerevisiae; Tub2p (yeast β-tubulin), S. cerevisiae; Polymer of m2; also called microtubule lattice; microtubule end

[3] = biological target: T1, wild-type yeast microtubules …; assay: TIRF microscopy, fluorescence intensity of the Stu2-eGFP spot on the growing microtubule end; end intensity dynamic assay; 5-300 nM Stu2-eGFP (titration, hyperbolic fit; apparent) or 200 nM variant; 0.8 μM wild-type yeast tubulin; 30°C; conditions: both partners purified
[4] = biological target: T1, wild-type yeast microtubules …; assay: TIRF microscopy of Stu2-eGFP on dynamic microtubules (kymographs); axoneme-seeded unlabeled dynamic yeast microtubules on the cover slip; Stu2-eGFP variant (100-200 nM) with 0.5-0.8 μM unpolymerized yeast tubulin in imaging buffer (1X PEM, 50 µM GTP, 0.1 mg/mL BSA, antifade); 30°C; conditions: both partners purified

T1 sequence (P09733 whole entry, chain 1 of 2): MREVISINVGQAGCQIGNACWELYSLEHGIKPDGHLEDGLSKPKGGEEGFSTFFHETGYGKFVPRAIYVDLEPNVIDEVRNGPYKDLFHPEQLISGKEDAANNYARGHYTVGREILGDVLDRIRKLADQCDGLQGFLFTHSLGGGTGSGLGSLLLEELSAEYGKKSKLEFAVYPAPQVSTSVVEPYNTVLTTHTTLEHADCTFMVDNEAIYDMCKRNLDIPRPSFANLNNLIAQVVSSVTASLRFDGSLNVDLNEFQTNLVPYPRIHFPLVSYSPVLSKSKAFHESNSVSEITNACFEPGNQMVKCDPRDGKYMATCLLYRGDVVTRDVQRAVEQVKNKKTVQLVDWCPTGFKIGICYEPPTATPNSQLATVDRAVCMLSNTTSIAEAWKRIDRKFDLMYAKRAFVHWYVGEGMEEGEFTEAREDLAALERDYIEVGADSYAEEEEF
T1 sequence (P02557 whole entry, chain 2 of 2): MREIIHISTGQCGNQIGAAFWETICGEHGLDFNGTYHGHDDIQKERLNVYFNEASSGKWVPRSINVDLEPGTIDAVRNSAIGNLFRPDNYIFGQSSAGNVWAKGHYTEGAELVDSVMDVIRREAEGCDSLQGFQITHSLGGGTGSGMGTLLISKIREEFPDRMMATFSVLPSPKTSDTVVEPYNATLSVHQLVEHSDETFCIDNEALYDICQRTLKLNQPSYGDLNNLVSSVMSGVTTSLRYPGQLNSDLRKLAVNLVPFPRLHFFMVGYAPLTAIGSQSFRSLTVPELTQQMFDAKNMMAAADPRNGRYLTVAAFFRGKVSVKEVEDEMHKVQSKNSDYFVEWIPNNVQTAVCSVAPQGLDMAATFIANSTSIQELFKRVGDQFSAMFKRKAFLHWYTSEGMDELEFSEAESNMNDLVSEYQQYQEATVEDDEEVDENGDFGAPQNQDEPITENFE
wild-type yeast microtubules (polymerized wild-type yeast αβ-tubulin) (S. cerevisiae), sequence (P09733 whole entry, chain 1 of 2): as the sequence (P09733 whole entry, chain 1 of 2) above
wild-type yeast microtubules (polymerized wild-type yeast αβ-tubulin) (S. cerevisiae), sequence (P02557 whole entry, chain 2 of 2, further chain): as the sequence (P02557 whole entry, chain 2 of 2) above

relative amount of polymerase on the microtubule end (wild type = one) (relative to wild type) [1] | characteristic residence time on the growing microtubule end [2] [s] | relative amount of polymerase on the microtubule end (wild type = one) [3] | binding result [4] | Molecule
1 |  |  |  | Stu2(TOG2-TOG2)-eGFP (from UniProt P46675 1-888)
 | 3.9 | 0.5 relative to wild type |  | Stu2(TOG2-TOG2*)-eGFP (other) MSGEEEVDYTTEETILDKLPKDFQERITSSKWKDRVEALEEFWDSVLSQTKKLKSTSQNYSNLLGIYGHIIQKDANIQAVALAAQSVELICDKLKTPGFSKDYVSLVFTPLLDRTKEKKPSVIEAIRKALLTICKYYDPLASSGRNEDMLKDILEHMKHKTPQIRMECTQLFNASMKEEKDGYSTLQRYLKDEVVPIVIQIVNDTQPAIRTIGFESFAILIKIFGMNTFVKTLEHLDNLKRKKIEETVKTDEPSSSKMLFEWEKRELEKKRSQEEEARKRKSILSNDEGEYQIDKDGDTLMGMETDMPPSKQQSGVQIDTFSMLPEETILDKLPKDFQERITSSKWKDRVEALEEFWDSVLSQTKKLKSTSQNYSNLLGIYGHIIQKDANIQAVALAAQSVELICDKLKTPGFSKDYVSLVFTPLLDRTKEKKPSVIEAIRKALLTICKYYDPLASSGRNEDMLKDILEHMKHKTPQIRMECTQLFNASMKEEKDGYSTLQRYLKDEVVPIVIQIVNDTQPAIATIGFESFAILIKIFGMNTFVKTLEHLDNLKRKKIEETVKTLPNFSIASGSTHSTIETNKQTGPMENKFLLKKSSVLPSKRVASSPLRNDNKSKVNPIGSVASASKPSMVAANNKSRVLLTSKSLATPKNVVANSTDKNEKLIEEYKYRLQKLQNDEMIWTKERQSLLEKMNNTENYKIEMIKENEMLREQLKEAQSKLNEKNIQLRSKEIDVNKLSDRVLSLENELRNMEIELDRNKKRNDTNLQSMGTISSYSIPSSTVSSNYGVKSLSSALPFKEEEDVRRKEDVNYERRSSESIGDLPHRVNSLNIRPYRKNGTGVSSVSDDLDIDFNDSFASEESYKRAAAVTSTLKARIEKMKAKSRREGTTRT
 |  |  | binds | 'doubly dead' Stu2(TOG1*-TOG2*)-eGFP (natural protein, S. cerevisiae, UniProt P46675 1-888, looked up, Stu2, S. cerevisiae, fully dimeric (888) background; also called double dead Stu2; source: E. coli Arctic Express, purified (His60 Superflow, Strep-Tactin); not shown: eGFP, C-terminal, kept) MSGEEEVDYTTLPLEERLTYKLWKARLEAYKELNQLFRNSVGDISRDDNIQIYWRDPTLFAQYITDSNVVAQEQAIVALNSLIDAFASSSLKNAHNITLISTWTPLLVEKGLTSSRATTKTQSMSCILSLCGLDTSITQSVELVIPFFEKKLPKLIAAAANCVYELMAAFGLTNVNVQTFLPELLKHVPQLAGHGDRNVASQTMNLIVEIYKVTGNNSDLLEEILFKKLKPIQVKDLHKLFAKVGDEPSSSKMLFEWEKRELEKKRSQEEEARKRKSILSNDEGEYQIDKDGDTLMGMETDMPPSKQQSGVQIDTFSMLPEETILDKLPKDFQERITSSKWKDRVEALEEFWDSVLSQTKKLKSTSQNYSNLLGIYGHIIQKDANIQAVALAAQSVELICDKLKTPGFSKDYVSLVFTPLLDRTKEKKPSVIEAIRKALLTICKYYDPLASSGRNEDMLKDILEHMKHKTPQIRMECTQLFNASMKEEKDGYSTLQRYLKDEVVPIVIQIVNDTQPAIATIGFESFAILIKIFGMNTFVKTLEHLDNLKRKKIEETVKTLPNFSIASGSTHSTIETNKQTGPMENKFLLKKSSVLPSKRVASSPLRNDNKSKVNPIGSVASASKPSMVAANNKSRVLLTSKSLATPKNVVANSTDKNEKLIEEYKYRLQKLQNDEMIWTKERQSLLEKMNNTENYKIEMIKENEMLREQLKEAQSKLNEKNIQLRSKEIDVNKLSDRVLSLENELRNMEIELDRNKKRNDTNLQSMGTISSYSIPSSTVSSNYGVKSLSSALPFKEEEDVRRKEDVNYERRSSESIGDLPHRVNSLNIRPYRKNGTGVSSVSDDLDIDFNDSFASEESYKRAAAVTSTLKARIEKMKAKSRREGTTRT
 | 1.7 |  |  | Stu2(TOG1*-TOG2)-eGFP (R200A) (natural protein, S. cerevisiae, UniProt P46675 1-888, looked up, Stu2, S. cerevisiae, fully dimeric (888) background; also called TOG1* (R200A); source: E. coli Arctic Express, purified (His60 Superflow, Strep-Tactin); not shown: eGFP, C-terminal, kept) MSGEEEVDYTTLPLEERLTYKLWKARLEAYKELNQLFRNSVGDISRDDNIQIYWRDPTLFAQYITDSNVVAQEQAIVALNSLIDAFASSSLKNAHNITLISTWTPLLVEKGLTSSRATTKTQSMSCILSLCGLDTSITQSVELVIPFFEKKLPKLIAAAANCVYELMAAFGLTNVNVQTFLPELLKHVPQLAGHGDRNVASQTMNLIVEIYKVTGNNSDLLEEILFKKLKPIQVKDLHKLFAKVGDEPSSSKMLFEWEKRELEKKRSQEEEARKRKSILSNDEGEYQIDKDGDTLMGMETDMPPSKQQSGVQIDTFSMLPEETILDKLPKDFQERITSSKWKDRVEALEEFWDSVLSQTKKLKSTSQNYSNLLGIYGHIIQKDANIQAVALAAQSVELICDKLKTPGFSKDYVSLVFTPLLDRTKEKKPSVIEAIRKALLTICKYYDPLASSGRNEDMLKDILEHMKHKTPQIRMECTQLFNASMKEEKDGYSTLQRYLKDEVVPIVIQIVNDTQPAIRTIGFESFAILIKIFGMNTFVKTLEHLDNLKRKKIEETVKTLPNFSIASGSTHSTIETNKQTGPMENKFLLKKSSVLPSKRVASSPLRNDNKSKVNPIGSVASASKPSMVAANNKSRVLLTSKSLATPKNVVANSTDKNEKLIEEYKYRLQKLQNDEMIWTKERQSLLEKMNNTENYKIEMIKENEMLREQLKEAQSKLNEKNIQLRSKEIDVNKLSDRVLSLENELRNMEIELDRNKKRNDTNLQSMGTISSYSIPSSTVSSNYGVKSLSSALPFKEEEDVRRKEDVNYERRSSESIGDLPHRVNSLNIRPYRKNGTGVSSVSDDLDIDFNDSFASEESYKRAAAVTSTLKARIEKMKAKSRREGTTRT
 | 4 | 0.5 relative to wild type |  | Stu2(TOG1-TOG2*)-eGFP (R519A) (natural protein, S. cerevisiae, UniProt P46675 1-888, looked up, Stu2, S. cerevisiae, fully dimeric (888) background; also called TOG2* (R519A); source: E. coli Arctic Express, purified (His60 Superflow, Strep-Tactin); not shown: eGFP, C-terminal, kept) MSGEEEVDYTTLPLEERLTYKLWKARLEAYKELNQLFRNSVGDISRDDNIQIYWRDPTLFAQYITDSNVVAQEQAIVALNSLIDAFASSSLKNAHNITLISTWTPLLVEKGLTSSRATTKTQSMSCILSLCGLDTSITQSVELVIPFFEKKLPKLIAAAANCVYELMAAFGLTNVNVQTFLPELLKHVPQLAGHGDRNVRSQTMNLIVEIYKVTGNNSDLLEEILFKKLKPIQVKDLHKLFAKVGDEPSSSKMLFEWEKRELEKKRSQEEEARKRKSILSNDEGEYQIDKDGDTLMGMETDMPPSKQQSGVQIDTFSMLPEETILDKLPKDFQERITSSKWKDRVEALEEFWDSVLSQTKKLKSTSQNYSNLLGIYGHIIQKDANIQAVALAAQSVELICDKLKTPGFSKDYVSLVFTPLLDRTKEKKPSVIEAIRKALLTICKYYDPLASSGRNEDMLKDILEHMKHKTPQIRMECTQLFNASMKEEKDGYSTLQRYLKDEVVPIVIQIVNDTQPAIATIGFESFAILIKIFGMNTFVKTLEHLDNLKRKKIEETVKTLPNFSIASGSTHSTIETNKQTGPMENKFLLKKSSVLPSKRVASSPLRNDNKSKVNPIGSVASASKPSMVAANNKSRVLLTSKSLATPKNVVANSTDKNEKLIEEYKYRLQKLQNDEMIWTKERQSLLEKMNNTENYKIEMIKENEMLREQLKEAQSKLNEKNIQLRSKEIDVNKLSDRVLSLENELRNMEIELDRNKKRNDTNLQSMGTISSYSIPSSTVSSNYGVKSLSSALPFKEEEDVRRKEDVNYERRSSESIGDLPHRVNSLNIRPYRKNGTGVSSVSDDLDIDFNDSFASEESYKRAAAVTSTLKARIEKMKAKSRREGTTRT
